Assay results as given in patent US20220184177A1 (SAINT JOSEPH S UNIVERSITY, published 2022).
Where no end group is shown, it is not given here. The star is where a group is joined. Biotin = O=C1N[C@H]2[C@H](CS[C@H]2CCCCC(=O)*)N1

T1: Estrogen Receptor α (UniProt P03372 1-595, limits assumed)
T1 construct: also called ERα; ERa
T1 sequence (looked up): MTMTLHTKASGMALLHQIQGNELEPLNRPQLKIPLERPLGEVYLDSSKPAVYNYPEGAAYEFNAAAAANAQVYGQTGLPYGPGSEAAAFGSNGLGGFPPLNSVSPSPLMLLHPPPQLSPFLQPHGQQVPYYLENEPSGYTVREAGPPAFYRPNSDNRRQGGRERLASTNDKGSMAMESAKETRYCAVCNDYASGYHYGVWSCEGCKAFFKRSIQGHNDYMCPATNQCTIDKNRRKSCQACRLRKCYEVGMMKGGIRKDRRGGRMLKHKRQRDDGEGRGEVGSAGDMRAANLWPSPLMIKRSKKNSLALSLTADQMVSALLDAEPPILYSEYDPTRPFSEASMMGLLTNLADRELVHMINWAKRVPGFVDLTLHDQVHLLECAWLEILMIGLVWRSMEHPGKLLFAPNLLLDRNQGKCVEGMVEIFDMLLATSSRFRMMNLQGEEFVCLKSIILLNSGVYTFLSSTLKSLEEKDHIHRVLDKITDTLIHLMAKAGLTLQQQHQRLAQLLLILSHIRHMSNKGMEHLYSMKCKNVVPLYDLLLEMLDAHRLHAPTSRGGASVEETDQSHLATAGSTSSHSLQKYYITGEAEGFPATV

B1: CAPER peptide Scrambled (peptide)
peptide: Biotin-VGDALQGLRLFSTQASIGAQMEQLAAQPLRAGQMLQLAQASPLRT
notes: Control peptide; also called CAPER Scrambled Peptide; CAPER scrambled peptide
B2: CAPER peptide HCC1.3 (amino acid residues 356-400) (peptide)
peptide: Biotin-RLQLMARLAEGTGLQIPPAAQQALQMSGSLAFGAVADLQTRLSQQ
notes: Custom synthesized (LifeTein), crude purity, N-terminal biotin; A TAT control peptide was run alongside, so the TAT form is possible
B3: CAPER peptide HCC1.4 (amino acid residues 356-400) (peptide)
peptide: Biotin-RLQLMARLAEGTGLQIPPAAQQALQMSGSLAFGAVAEFSFVIDLQ
notes: Custom synthesized (LifeTein), crude purity, N-terminal biotin
B4: His-tagged recombinant c-Jun (other, UniProt P05412 1-331, looked up)
chain: MTAKMETTFYDDALNASFLPSESGPYGYSNPKILKQSMTLNLADPVGSLKPHLRAKNSDLLTSPDVGLLKLASPELERLIIQSSNGHITTTPTPTQFLCPKNVTDEQEGFAEGFVRALAELHSQNTLPSVTSAAQPVNGAGMVAPAVASVAGGSGSGGFSASLHSEPPVYANLSNFNPGALSSGGGAPSYGAAGLAFPAQPQQQQQPPHHLPQQMPVQHPRLQALKEEPQTVPEMPGETPPLSPIDMESQERIKAERKRMRNRIAASKCRKRKLERIARLEEKVKTLKAQNSELASTANMLREQVAQLKQKVMNHVNSGCQLMLTQQLQTF
notes: Captured on BLI tips by an anti-his tag antibody; also called c-Jun receptor; c-Jun component of AP-1; not shown: his tag
B5: Recombinant Full-Length CAPER HCC1.3 (other)
chain: ADDIDIEAMLEAPYKKDENKLSSANGHEERSKKRKKSKSRSRSHERKRSKSKERKRSRDRERKKSKSRERKRSRSKERRRSRSRSRDRRFRGRYRSPYSGPKFNSAIRGKIGLPHSIKLSRRRSRSKSPFRKDKSPVREPIDNLTPEERDARTVFCMQLAARIRPRDLEEFFSTVGKVRDVRMISDRNSRRSKGIAYVEFVDVSSVPLAIGLTGQRVLGVPIIVQASQAEKNRAAAMANNLQKGSAGPMRLYVGSLHFNITEDMLRGIFEPFGRIESIQLMMDSETGRSKGYGFITFSDSECAKKALEQLNGFELAGRPMKVGHVTERTDASSASSFLDSDELERTGIDLGTTGRLQLMARLAEGTGLQIPPAAQQALQMSGSLAFGAVADLQTRLSQQTEASALAAAASVQPLATQCFQLSNMFNPQTEEEVGWDTEIKDDVIEECNKHGGVIHIYVDKNSAQGNVYVKCPSIAAAIAAVNALHGRWFAGKMITAAYVPLPTYHNLFPDSMTATQLLVPSRR
notes: Bought from R&D Systems; also called full-length recombinant CAPER; CAPER isoform HCC1.3
B6: TAT Control Peptide (peptide)
peptide: Biotin-YGRKKRRQRRR
notes: Control peptide; also called TAT only control

Experiments:
[1] = molecular target: B4; experiment: BLI (Octet), His-tagged c-Jun captured on anti-His tips, peptide in solution
Estrogen Receptor α = molecular target: T1, Estrogen Receptor α; experiment: binding kinetics on ERα (method not described, presumably BLI)
[2] = molecular target: B4; experiment: BLI (Octet), his-tagged c-Jun captured by anti-his antibody, 1:1 model
[3] = molecular target: B5; experiment: as above
[4] = molecular target: B4; experiment: BLI, his-tagged c-Jun captured by anti-his antibody

Binder: B1
- binding result [1]: no binding (tested: 1000 (no unit printed on the sheet))

Binder: B2
- Kd (Estrogen Receptor α): 4.5 nM
- koff (Estrogen Receptor α): 0.000115 s⁻¹
- kon (Estrogen Receptor α): 25400 M⁻¹ s⁻¹
- Kd [2]: 8.89 nM
- koff [2]: 0.000337 s⁻¹
- kon [2]: 37900 M⁻¹ s⁻¹

Binder: B3
- Kd (Estrogen Receptor α): 30.2 nM
- koff (Estrogen Receptor α): 0.00172 s⁻¹
- kon (Estrogen Receptor α): 57100 M⁻¹ s⁻¹
- Kd [2]: 25.6 nM
- koff [2]: 0.00098 s⁻¹
- kon [2]: 38300 M⁻¹ s⁻¹

Binder: B4
- Kd [3]: 0.18 nM
- koff [3]: 5.66e-05 s⁻¹
- kon [3]: 312000 M⁻¹ s⁻¹

Binder: B5
- Kd (Estrogen Receptor α): 0.02 nM
- koff (Estrogen Receptor α): 2.34e-05 s⁻¹
- kon (Estrogen Receptor α): 937000 M⁻¹ s⁻¹

Binder: B6
- binding result [4]: no binding
